# Experimental data reported in the DeepSol protein solubility set.
# Assay: soluble on expression in E. coli; label from the status in PepcDB or PDB records
row,Sequence,soluble on expression in E. coli
1,MTKKYDLHCHSTASDGVLSPTELVHRAYAQGVNVLALCDHDTIAGIDEAEIAAKEVGIELITGVEISTNWEGRGIHIVGLNFDKTHPKMTALLQSQKALREKRAVEIGDKLEKAGIPNAYDGAKALADGEVTRAHYARYLVQIGKVSNDGQAFKRYLGQGKSAFVKAEWADIPTAIETIHAAGGIAIIAHPLRYNMTGKWVRKLIVDFKAWGGDGMEMADCGQTKDQRQMLARWAKEFDLQGSVGSDFHFPCGWIELGKNLDLVDSVIPVWEKFLEHHHHHH,soluble
2,MAHHHHHHMDGQSSSPAEPASGSVALLYDYTTANDAPVEVHRAAAGRLACSYRAECLAIENGFGHLMPPCLGTSQSPTRILVATDSLSAIEAFRCPLAMRDRVTEAILIMPLSLVKRGRPVEFIFSPSHCGIPRNEATDEEATISISLPQEGIPIWHVDFLTAVKRLCWKEFQEEAEGAYTARQAFVGVARTPFLISSQK,not soluble
3,MDIRYFGTTPRYSEAVGANGLIFLSGMVPENGETAAEQTADVLAQIDRWLAECGSDKAHVLDAVIYLRDMGDYAEMNGVWDAWVAAGRTPARACVEARLARPEWRVEIKITAVKRDAATA,not soluble
4,MGSSHHHHHHSSGLVPRGSHMMIVIMDNGGQYVHRIWRTLRYLGVETKIIPNTTPLEEIKAMNPKGIIFSGGPSLENTGNCEKVLEHYDEFNVPILGICLGHQLIAKFFGGKVGRGEKAEYSLVEIEIIDEDEIFKGLPKRLKVWESHMDEVKELPPKFKILARSETCPIEAMKHEELPIYGVQFHPEVAHTEKGEEILRNFAKLCGEL,soluble
5,METIKALEKFMEFDRLQKDCSDKLDRERERRMKAEREIARKNCGGNPCERELKSERSNVKRLEYQLDAEKEKVKFYKRELERDRYLSSRYLTSSSDPHEKPLPNYTFPRIKNVSPLTTEATGSVEVAPPSTDVTEPISDVTPSVDVEPEHPPAF,not soluble
6,RLSTWARKQTAMSQTQDYECRSHNVDLPESRIPGSNTRLEWVEIIEPRTRERMYANLVTGECVWDPPAGVRIKRTSENQWWELFDPNTSRFYYYNASTQRTVWHRPQGCDIIPLAKLQTLKQNTESPRASAESSPGRGSSVSREGSTSSSLEPEPDTEKAQELPARAGRPAAFGTVKEDSGSSSPPGVFLEKDYEIYRDYSADGQLLHYRTSSLRWNSGAKERMLIKVADREPSFLAAQGNGYAPDGPPGVRSRRPSGSQHSPSLQTFAPEADGTIFFPERRPSPFLKRAELPGSSSPLLAQPRKPSGDSQPSSPRYGYEPPLYEEPPVEYQAPIYDEPPMDVQFEAGGGYQAGSPQRSPGRKPRPFLQPNKQGPPSPCQQLVLTKQKCPERFLSLEYSPAGKEYVRQLVYVEQAGSSPKLRAGPRHKYAPNPGGGSYSLQPSPCLLRDQRLGVKSGDYSTMEGPELRHSQPPTPLPQAQEDAMSWSSQQDTLSSTGYSPGTRKRKSRKPSLCQATSATPTEGPGDLLVEQPLAEEQPPCGTSLAPVKRAEGEAEGARGAAEPFLAQARLAWEAQQAHFHMKQRSSWDSQQDGSGYESDGALPLPMPGPVVRAFSEDEALAQQENRHWRRGTFEKLGFPQILLEKSVSVQTNLASPEPYLHPSQSEDLAACAQFESSRQSRSGVPSSSCVFPTFTLRKPSSETDIENWASKHFNKHTQGLFRRKVSIANMLAWSSESIKKPMIVTSDRHVKKEACELFKLIQMYMGDRRAKADPLHVALEVATKGWSVQGLRDELYIQLCRQTTENFRLESLARGWELMAICLAFFPPTPKFHSYLEGYIYRHMDPVNDTKGVAISTYAKYCYHKLQKAALTGAKKGLKKPNVEEIRHAKNAVFSPSMFGSALQEVMGMQRERYPERQLPWVQTRLSEEVLALNGDQTEGIFRVPGDIDEVNALKLQVDQWKVPTGLEDPHVPASLLKLWYRELEEPLIPHEFYEQCIAHYDSPEAAVAVVHALPRINRMVLCYLIRFLQVFVQPANVAVTKMDVSNLAMVMAPNCLRCQSDDPRVIFENTRKEMSFLRVLIQHLDTSFMEGVL,soluble
7,MGSDKIHHHHHHMRAAQYLRMSTEHQTYSIDNQRDAIRDYAEIMGYEIVATYEDAGRSGLNLGGRPGLQRLLADVESGRADFETVVVYDVSRWGRFQNIDESAAYEYRCQMAGVRIEFCAEQFANDGSIESDVLKAIKRSMAAEQSRMLSQKVFIGQARLIRMGFRQGSKVGFGLRRLLVDQHGRPKGILSPSEYKSLQTDRIILVLGPPDEIATVRWIFGHFVKTRKTELEMARLLNKRGVLSDLGRPWTRVSVHSVLTNENYIGNSIWNKHSARLRSHQVRNPPELWVRVENILEPIVDRKLFNRAQIVLKTIYRHLTNDEMLAALKALLARRGALSSFIIDAAPDCPPSTRYMSRFGTIVKAYELIGYEPPKNSRYIFVNRRLETMRLQIIEDLLAAVEKRGGIATHVMETDLLRINQEITVAIATGRCRVSSFGYPRWFAKADREPPPDIFVLIRMNPDDLSIRDYLIAPAHEIAGKSELHAINGARLDTYIFPTLNPLIRLAERASVGSAAWN,not soluble
8,MTGTLAPEAMPLLSVRKLTKLFGNFAACNGIDLDIAPGEIHALLGENGAGKSTLVKMLFGVLSPTEGDIIWQGQPVSVGSPSEARRLGIGMVFQHFSLFEALTVAENIALSLDPKISLKEIAREAEQLSRAYGLPLDPNAHVADLSVGERQRIEIVRALLQNPRLIILDEPTSVLTPQEADKLFETLAKLKAEGRSVLYISHRLEEVQRICDRATVLRHGKVTGACDPRKETPASLARMMVGSDVASVSRATGEALGAPQIEVMGLSVAPRTPFAVALKSISMNVRAGEVLAIAGVAGNGQGELFDALSGEYPVYNNDAIHLRGKPVGRLGINGRRLMGAGFVPEERHGHAAVPGMSLSDNLLLARSRSDRKAFLTGGFLRIVRGSTIKAAARRISETMDVRKSGADPLAGSLSGGNLQKFIVGRELDRQPSVLVVNQPTWGVDAGAASRIRQALVDLAKAGSAVIVISQDLDEIFEVATNIAVISDGMLSEAHPVEEMTLEKIGLLMGGIHTSQSGAAQHAHLEHHHHHH,not soluble
9,MGSDKIHHHHHHMNYKLISIDLAKTVFQVAAFNPDNTIAFNRKINRPALLDMLRQCEPTLVVMEACYSANYWGRTIEKLGHTVKLIPARMVKAMLVGNKNDANDAVAIGETAGRPKVSLLRPKTVEQQDIQSLLRIRERLVENRTANCNQLRGFLAEYGLIVAKTRRQLMLAIPLILEDADNELSTVARGFIQRLYEFQLYLNEQIDQVAQDILALAQAMPQYPLLLTIPGVGPIVASTLLASINEVNDFKNGRQLAAWLGLTPSQYSSGTTNRLGKITKRGNQTLRRLLIHGARTVVNWCDKKDDSLSLWLQRLKQRQHVCKVTVALANKMARMVFVVMSRGQAFDMNKACKLAT,not soluble
10,ASMTGNECPELQPPVHGKIEPSQAKYFFKDQVLVSCDTGYKVLKDNVEMDTFQIECLKDGTWSNKIPTCKIVDCRAPGELEHGLITFSTRNNLTTYKSEIKYSCQEPYYKMLNNNTGIYTCSAQGVWMNKVLGRSLPTCLPVCGLPKFSRKLMAR,soluble
11,MSYLSAIENQENMVVKQEIKIEEEDDDYPLSTIDMAVQALIRNPHHNVDYICGVMIFGGSKNQFNELLNPVVVAQMSKQRKQKKVPVKNPAGEAKRGRGRPRKQSSEEKVQIPKVVVKFEPKKRGRPAGAAKWSQEVAVVLQKQPQRKRGRPLKIAKKIEPVFHQKKESKQNSEEKALIQQEAVKGEPKNRGRPCGAAERSREVVKKLQKQPPRKRGRPLKIAKNMEPEINQKKDTKQVHVCPICTLASKNGTCLCTKCQKWVHLKCTGIRSKQWNSQFQCKNCTC,not soluble
12,MGSDKIHHHHHHMLVAERQQKIVEIVNMRSSIRVSELSDIFSVTEETIRRDLEKLEKEHKLSRSHGGAVSIQQKESEIHFSEREITNVIEKKAIAHEAAKYVKSGDRIILDASTTAWYMAKILPDIELTVITNSMKAAIELSNKENISVISTGGILLEKSLSFAGPLAERSLETYHVNKTFLSCKGFDVHNGMSDSNEWQALLKKRMIERSDQTILMADSSKWGNREFSHIASLQDVSRLITDSGLDPASVKALEDKKVKVTAVPLSKRG,not soluble
13,MSLKTTTSSTPSDRITWVRISSCYLPLATPISDAKVLTGRQKPMTEIAILFAEIETAGGHQGLGFSYSKRAGGPGQFAHAREIAPALIGEDPSDIAKLWDKLCWAGASAGRSGLSTQAIGAFDVALWDLKAKRAGLSLAKLLGSYRDSVRCYNTSGGFLHTPIDQLMVNASASIERGIGGIKLKVGQPDGALDIARVTAVRKHLGDAVPLMVDANQQWDRPTAQRMCRIFEPFNLVWIEEPLDAYDHEGHAALALQFDTPIATGEMLTSAAEHGDLIRHRAADYLMPDAPRVGGITPFLKIASLAEHAGLMLAPHFAMELHVHLAAAYPREPWVEHFEWLEPLFNERIEIRDGRMLVPTRPGLGLTLSGQVKAWTREEAQVGTRPEGHHHHHH,soluble
14,MTDKENFYSGFFLGRLPGSFDSRFLIKVACFQPGKEERNVFELTTDTKREEDYGEMVHFWVDKGPLQNKSFVRFEENYETFFIHENKMFDRIVHTDKDFYVGVNDLPDSDIYIHPDLGKMIDTRSIVTPGKKYNFITFEVKQNENNSFDIEIVGGEVQGKEKNSEEPSAKEKIIQKMEQVHEVMKVEYEYNKNEETANWDVIGHLKLIKFYDKDLTSGLRPVLRLMDNRHVALFKKQRETMPIKMIKVIEVDGIWKDDVNFVPQEGTLLPTDHDEKTVVLLGNDYRHKFERLFKREDVFRLESNNTLTHLKFWQYGLEKI,not soluble
15,MAESSVTFTISTDGGGKINVIYDGSHKTNATDSSVNSESVTPCESLDTTKESEMLKAGLRRRAPSISTESSVTFSSISDFEDLNLRCSTPLVCDDDTNSNSDASFASCVSEVSEMSIKTTSSQETVTSASGLKESKPMEKMEEKREVRMKSYEQVNKERYGGWTEVVNWRAAKKPQSVAPSQSSTKKTLSNNGTTTDHGITSASRRTPNSTHVASKPQLNTRATSVQGSAPSSGSKSRIPSLANRQVYNNSPQLFHPFPPSRCNSSNGSYASTVTASPSVASYSPNPSQPPPPVAVAKLNMKMTITTDSNGKMSVHFSNSNSSESWSINGLLGNSDKINVSKMF,not soluble
16,MTEQSVKNTPQHETQSKPKQKTVKLIIKRQDTSDSKPYEETFEIPYRENLNVIACLMEIRRNPVNIKGEKTTPVVWDMNCLEEVCGACSMVINGRARQSCSAIVDQLEQPIRLEPMNTFPVIRDLQVDRSRMFDNLKRMKAWIPIDGTYDLGPGPRMPEKKRQTAYELSKCMTCGVCLEVCPNVTENNKFVGAQAISQVRLFNLHPTGSMTKDERLNALMGTGGLQQCGNSQNCVNACPKGIPLTTSIAAMNRETTFHMFKSFFGSDHEVE,not soluble
17,MKGRRPPASPTAAASAQLELPLLAPPAAPDAAPPSADPAQPDPAAPLGPDQRRLALGERTLVYHLKRSSRRTIGFVVDDRGLSITAPRWVTLAEIEHAIAEKQKWIFAKLAEWHTSAARRVLPPMRWEDGATLPFLGKPVMLKLESPIGALVFDADMRTLHLGLPPTATGQQIKDRVQGWLQTQARRLFGERLDVYAERLGVRHSAYALSSAATRWGSCTADGKIRLNWRLVHFPLSLIDYVVAHELAHLKEMNHSPRFWDTVESIFPEFREAREQLRSHPPEYLPVFLEHHHHHH,not soluble
18,DGGTMENLSRRLKVTGDLFDIMSGQT,soluble
19,MGSDKIHHHHHHMDFDTGRRIDRRAIPADAVEGTWTASDGHPIRRIDWPGHSEPDAPTAPRGSLLFLPGRGDFYEKYLESLDYWHCEGWRVTALDWRGQAGSGRLSSDPMTGHVPDFGLWLDDLGAFWTDWVRDTPGPHVVVGHSMGGHLVLRALAERRIDPAAVVLSAPMLGFLTPGPNRVLHRVAEFMCRIGDPERSAWKSSEKPGATTAARNTLLTHDEARYGDETHWKTVRPELAMGPGSWRWVERAYASMLVLDRPGLLEAVDVPVLLLAARHDGLVSWRAIERAARRLPRAQLMTWGREARHELLREADPVRDKVMHAIDDFLDRLAPPTGEDAPA,not soluble
20,MTTFERIKKLSAKKGITISQLTSELEMGENSIYRWKTQKPALDKLQKVADYFNVSIDYLLGRTDNPQIDSDIPPEATTLAAHIDPAATEEDMKKILEYIDFIQQKYK,not soluble
